Laboratory results as given in US20190359693A1.

How the values were obtained:
Experiment in all cases: cell-based or functional assay
[1] = target: hemagglutinin (HA) of influenza virus H3N2 A/HK/1174/99 (influenza A virus)
[2] = target: hemagglutinin (HA) of influenza virus H8N4 A/Eurasian Wigeon/MPH571/08 (influenza A virus)
[3] = target: hemagglutinin (HA) of influenza virus H3N2 A/Hiroshima/52/05 (influenza A virus)
[4] = target: hemagglutinin (HA) of influenza virus H3N2 A/HK/1/68-MA (influenza A virus)
[5] = target: hemagglutinin (HA) of influenza virus H7N7 A/Northern Shoveler/MPF518/08 (influenza A virus)
[6] = target: hemagglutinin (HA) of influenza virus H3N2 A/Panama/2007/99 (influenza A virus)
[7] = target: hemagglutinin (HA) of influenza virus H2N2 A/Env/HK/MPU3156/05 (influenza A virus)
[8] = target: hemagglutinin (HA) of influenza virus H6N8 A/Eurasian Wigeon/MPD411/07 (influenza A virus)
[9] = target: hemagglutinin (HA) of influenza virus H1N2 A/Env/HK/MPU3156/05 (influenza A virus)
[10] = target: hemagglutinin (HA) of influenza virus H1N1 A/Brisbane/59/07 (influenza A virus)
[11] = target: hemagglutinin (HA) of influenza virus H3N2 A/Victoria/210/09 (influenza A virus)
[12] = target: hemagglutinin (HA) of influenza virus H10N7 A/Chick/Germany/N/49 (influenza A virus)
[13] = target: hemagglutinin (HA) of influenza virus H7N7 A/Common Teal/MPF139/07 (influenza A virus)
[14] = target: hemagglutinin (HA) of influenza virus H5N1 A/Indonesia/5/05 (influenza A virus)
[15] = target: hemagglutinin (HA) of influenza virus H6N1 A/Eurasian Wigeon/MPG1884/09 (influenza A virus)
[16] = target: hemagglutinin (HA) of influenza virus H3N2 A/Brisbane/10/07 (influenza A virus)
[17] = target: hemagglutinin (HA) of influenza virus H3N2 A/Johannesburg/33/94 (influenza A virus)
[18] = target: hemagglutinin (HA) of influenza virus B/Harbin/7/94 (Yamagata) (influenza B virus)
[19] = target: hemagglutinin (HA) of influenza virus H10N3 A/Common Teal/MPH11/08 (influenza A virus)
[20] = target: hemagglutinin (HA) of influenza virus H10N8 A/Jiangxi/346/2013 (influenza A virus)
[21] = target: hemagglutinin (HA) of influenza virus H5N2 A/Eurasian Wigeon/HK/MPF333/07 (influenza A virus)
[22] = target: hemagglutinin (HA) of influenza virus H11N9 A/Northern Pintail/MPC2085/07 (influenza A virus)
[23] = target: hemagglutinin (HA) of influenza virus B/Massachusetts/02/12 (Yamagata) (influenza B virus)
[24] = target: hemagglutinin (HA) of influenza virus H7N7 A/Netherlands/219/2003 (influenza A virus)
[25] = target: hemagglutinin (HA) of influenza B/Brisbane/60/08 (Victoria) (influenza B virus)

B1: MD2407 (bispecific antibody)
chain: EVQLVESGGGLVQPGGSLRLSCAVSISIFDIYAMDWYRQAPGKQRDLVATSFRDGSTNYADSVKGRFTISRDNAKNTLYLQMNSLKPEDTAVYLCHVSLYRDPLGVAGGMGVYWGKGALVTVSSGGGGSGGGGSEVQLVESGGGLVQAGGSLKLSCAASGRTYAMGWFRQAPGKEREFVAHINALGTRTYYSDSVKGRFTISRDNAKNTEYLEMNNLKPEDTAVYYCTAQGQWRAAPVAVAAEYEFWGQGTQVTVSSGGGGSGGGGSEVQLVESGGGLVQPGGSLRLSCAATGFTLENKAIGWFRQTPGSEREGVLCISKSGSWTYYTDSMRGRFTISRDNAENTVYLQMDSLKPEDTAVYYCATTTAGGGLCWDGTTFSRLASSWGQGTQVTVSSGGGGSGGGGSEVQLVESGGGLVQPGGSLKLSCAASGFTFSTSWMYWLRQAPGKGLEWVSVINTDGGTYYADSVKDRFTISRDNAKDTLYLQMSSLKSEDTAVYYCAKDWGGPEPTRGQGTQVTVSS
- average neutralization titer [1]: 76 nM
- average neutralization titer [2]: 15.1 nM
- average neutralization titer [3]: 10.5 nM
- average neutralization titer [4]: 25.9 nM
- average neutralization titer [5]: 36.1 nM
- average neutralization titer [6]: 14.9 nM
- average neutralization titer [7]: 19.2 nM
- average neutralization titer [8]: 20.9 nM
- average neutralization titer [9]: 25.6 nM
- average neutralization titer [10]: 3.7 nM
- average neutralization titer [11]: 6.5 nM
- average neutralization titer [12]: 13.2 nM
- average neutralization titer [13]: 57.4 nM
- average neutralization titer [14]: 16.2 nM
- average neutralization titer [15]: 20.6 nM
- average neutralization titer [16]: 10.6 nM
- average neutralization titer [17]: 11.6 nM
- average neutralization titer [18]: 6.4 nM
- average neutralization titer [19]: 19.3 nM
- average neutralization titer [20]: 30.4 nM
- average neutralization titer [21]: 26 nM
- average neutralization titer [22]: 34.5 nM
- average neutralization titer [23]: 3 nM
- average neutralization titer [24]: 33 nM
- ADCC induction (EC50 grade, FcγRIIIa reporter bioassay) [25]: > 0.5 µg/mL
